Results: patent US20130157959

Molecular target: in vitro translated 35S-labelled p53 (wild-type) (UniProt P04637)

Substance: GST-Hades RING-mutant peptide (C302S/C305S)
- in vitro ubiquitination of p53 with E1, E2 (UbcH5c) and His-ubiquitin, anti-p53 immunoblot: The p53 ubiquitination was only induce by Hades
